{"source": "paper doi:10.1101/2021.02.17.431743", "about": "(bioRxiv, 2021)", "proteins": {"B1": {"name": "HeV-RBP full ectodomain (head domain with intact stalk domain), dimeric fraction after gradient fixation (domain or fragment)", "chain": "QNYTRTTDNQALIKESLQSVQQQIKALTDKIGTEIGPKVSLIDTSSTITIPANIGLLGSKISQSTSSINENVNDKCKFTLPPLKIHECNISCPNPLPFREYRPISQGVSDLVGLPNQICLQKTTSTILKPRLISYTLPINTREGVCITDPLLAVDNGFFAYSHLEKIGSCTRGIAKQRIIGVGEVLDRGDKVPSMFMTNVWTPPNPSTIHHCSSTYHEDFYYTLCAVSHVGDPILNSTSWTESLSLIRLAVRPKSDSGDYNQKYIAITKVERGKYDKVMPYGPSGIKQGDTLYFPAVGFLPRTEFQYNDSNCPIIHCKYSKAENCRLSMGVNSKSHYILRSGLLKYNLSLGGDIILQFIEIADNRLTIGSPSKIYNSLGQPVFYQASYSWDTMIKLGDVDTVDPLRVQWRNNSVISRPGQSQCPRFNVCPEVCWEGTYNDAFLIDRLNWVSAGVYLNSNQTAENPVFAVFKDNEILYQVPLAEDDTNAQKTITDCFLLENVIWCISLVEIYDTGDSVIRPKLFAVKIPAQCSES"}}, "target": "the molecule itself", "assay": "gradient fixation ultracentrifugation", "note": "Several values for one entry are separate records, joined by “and”; a condition that tells them apart may be missing. Equal values may be shown once.", "data": [{"protein": "B1", "values": [{"measurement": "stoichiometry N", "value": "2 and 4"}]}]}
